B1: Full-length Flag-MORC2 (natural protein, human, UniProt Q9Y6X9-1 1-1032, looked up)
chain: MAFTNYSSLNRAQLTFEYLHTNSTTHEFLFGALAELVDNARDADATRIDIYAERREDLRGGFMLCFLDDGAGMDPSDAASVIQFGKSAKRTPESTQIGQYGNGLKSGSMRIGKDFILFTKKEDTMTCLFLSRTFHEEEGIDEVIVPLPTWNARTREPVTDNVEKFAIETELIYKYSPFRTEEEVMTQFMKIPGDSGTLVIIFNLKLMDNGEPELDIISNPRDIQMAETSPEGTKPERRSFRAYAAVLYIDPRMRIFIHGHKVQTKRLSCCLYKPRMYKYTSSRFKTRAEQEVKKAEHVARIAEEKAREAESKARTLEVRLGGDLTRDSRVMLRQVQNRAITLRREADVKKRIKEAKQRALKEPKELNFVFGVNIEHRDLDGMFIYNCSRLIKMYEKVGPQLEGGMACGGVVGVVDVPYLVLEPTHNKQDFADAKEYRHLLRAMGEHLAQYWKDIAIAQRGIIKFWDEFGYLSANWNQPPSSELRYKRRRAMEIPTTIQCDLCLKWRTLPFQLSSVEKDYPDTWVCSMNPDPEQDRCEASEQKQKVPLGTFRKDMKTQEEKQKQLTEKIRQQQEKLEALQKTTPIRSQADLKKLPLEVTTRPSTEEPVRRPQRPRSPPLPAVIRNAPSRPPSLPTPRPASQPRKAPVISSTPKLPALAAREEASTSRLLQPPEAPRKPANTLVKTASRPAPLVQQLSPSLLPNSKSPREVPSPKVIKTPVVKKTESPIKLSPATPSRKRSVAVSDEEEVEEEAERRKERCKRGRFVVKEEKKDSNELSDSAGEEDSADLKRAQKDKGLHVEVRVNREWYTGRVTAVEVGKHVVRWKVKFDYVPTDTTPRDRWVEKGSEDVRLMKPPSPEHQSLDTQQEGGEEEVGPVAQQAIAVAEPSTSECLRIEPDTTALSTNHETIDLLVQILRNCLRYFLPPSFPISKKQLSAMNSDELISFPLKEYFKQYEVGLQNLCNSYQSRADSRAKASEESLRTSERKLRETEEKLQKLRTNIVALLQKVQEDIDINTDDELDAYIEDLITKGD
notes: MORC2, human, full length (residues 1-1032); source: HEK293T, transfected, in cytosolic and nuclear fractions
B2: MORC family CW-type zinc finger 2 (MORC2) (natural protein, human (endogenous in MCF-7 and T47D), UniProt Q9Y6X9 1-1032, looked up)
chain: B1 chain
notes: MORC2, human, endogenous in breast cancer cells; source: endogenous, MCF-7 and T47D lysates

What was measured:
[1] = target: the molecule itself; test: cross-linking; nuclear fraction of HEK293T cells transfected with Flag-MORC2 (48 h); chemical cross-linking with 0.05% glutaraldehyde on ice for 5 min; immunoblotting
[2] = target: the molecule itself; test: cross-linking; endogenous MORC2; total lysates (NP40 buffer) of MCF-7 and T47D cells treated with DMSO, 1 μM 17-AAG, AUY922, STA-9090 or 10 μM NB for 12 h; 0.05% glutaraldehyde on ice for 5 min; immunoblotting

Row | Protein | stoichiometry N [1] | stoichiometry N [2]
1 | B1 | 2 | –
2 | B2 | – | 2
